Laboratory results from the RNAGym collection of RNA variant scans (doi:10.1101/gr.219683.116).

B1: mRNA-splicing (parent)
chain: AGUUGCUGCUGGGAGCUCCAGCACAGUGAAAUGGACAGAAGGGCAGAGCAA

Variants of: B1
Assay: exon inclusion enrichment index; higher = more inclusion; WT1 exon 5 minigene, HEK293

Variant	exon inclusion enrichment index
AGUUAGGGAUGGGAGCUCCAGCACAGUGAAAUGGACAGAAGGUUAGAGCAA [G5A C6G U7G C9A G43U C44U]	0.00214
AGUUCUUCUCGGGAGCUCCAGCACAGUGAAGCGGACAGAAGGGCAGAGCAA [G5C C6U G8C C9U U10C A31G U32C]	3.89
AGUUAUAUAUGGGAGCUCCAGCACAGUGAAAUGGACAGAAGCACAGAGCAA [G5A C6U U7A G8U C9A G42C G43A]	0.295
AGUUACCACCGGGAGGGCCAGCACAGUGAAAUGGACAGAAGGGCAGAGCAA [G5A U7C G8A U10C C16G U17G]	0.238
AGUUAGGGAUGGGAGCUCCAGCACAGUGAAAUGGACAGUAGGGCAGAGCAA [G5A C6G U7G C9A A39U]	0.000789
AGAUACCACCGGGAGCUCCAGCACAGUGAAAUGGACAGAAGGGCAGAGCAA [U3A G5A U7C G8A U10C]	3.2
AGUUGAAGAAGGGAGCUCCAGCACAGUGAAAUGGACGAAAGGGCAGAGCAA [C6A U7A C9A U10A A37G G38A]	0.801
AGUUACCACCGGGAGCUCCAGCUAAGUGAAAUGGACAGAAGGGCAGAGCAA [G5A U7C G8A U10C A23U C24A]	1.02
AGUUUCUUUUGGGAGCUCCAGCACAGGCAAAUGGACAGAAGGGCAGAGCAA [G5U G8U C9U U27G G28C]	0.027
AGUUUCUUAGGGGAGCUCCAGCACAGUGAAAUGGACAGAAGGGCAGAGCAA [G5U G8U C9A U10G]	0.0162
AGUUGACGACGGGAAUUCCAGCACAGUGAAAUGGACAGAAGGGCAGAGCAA [C6A U7C C9A U10C G15A C16U]	2.88
AGUUGCUGCUGGGAGCUCCGACACAGUGAAAUGGACAGAAGGGCAGAGCAA [A20G G21A]	2.89
AGCCCGCGCCGGGAGCUCCAGCACAGUGAAAUGGACAGAAGGGCAGAGCAA [U3C U4C G5C C6G U7C U10C]	2.61
AGUUACCACCGGGAGCUCCAGCACAGUGAGAUGGACAGAAGGGCAGAGCAA [G5A U7C G8A U10C A30G]	2.36
AGUUCUUCUCGGGAGCUCCAGCAGAGUGAAAUGGACAGAAGGGCAGAGCAA [G5C C6U G8C C9U U10C C24G]	2.4
AGUUGAAGAAGGGAGGGCCAGCACAGUGAAAUGGACAGAAGGGCAGAGCAA [C6A U7A C9A U10A C16G U17G]	0.02
AGUUUCUUUUGGGAGCUCCAGGCCAGUGAAAUGGACAGAAGGGCAGAGCAA [G5U G8U C9U C22G A23C]	0.0377
AGUUAGGGAUGGGAGCUCCAGCACAACGAAAUGGACAGAAGGGCAGAGCAA [G5A C6G U7G C9A G26A U27C]	0.0139
AGUUAGGGAUGGGAGCUCCAGCACAGCAAAAUGGACAGAAGGGCAGAGCAA [G5A C6G U7G C9A U27C G28A]	0.00952
AGUUCGCGCCGGGAGCUCCAGCACAGUGAAAUGGACAGAAGGGCUUAGCAA [G5C C6G U7C U10C A45U G46U]	1.75
AGUUCUUCUCGGGAGCUCCAGCACUAUGAAAUGGACAGAAGGGCAGAGCAA [G5C C6U G8C C9U U10C A25U G26A]	2.23
AGUUACCACCGGGAGCUCCAGCACAGUGAAGGGGACAGAAGGGCAGAGCAA [G5A U7C G8A U10C A31G U32G]	1.52
AGUUAUAUAUGGGAGCUCCAGCACAGUGAAAUCGACAGAAGGGCAGAGCAA [G5A C6U U7A G8U C9A G33C]	0.108
AGUUGACGACGGGAGCUCCAGCACAGUGCGAUGGACAGAAGGGCAGAGCAA [C6A U7C C9A U10C A29C A30G]	4.07
AGUUGAAGAAGGGAGCUCGGGCACAGUGAAAUGGACAGAAGGGCAGAGCAA [C6A U7A C9A U10A C19G A20G]	0.289
AGUUCACACAGGGAGCUCCAGCACAGUGAAAUGGACAGAAGGGCGGAGCAA [G5C C6A U7C G8A U10A A45G]	0.276

Variant	exon inclusion enrichment index
AGUUGCUGCUGGGAGCUCCAGCACAGUGAAAUGGACAGAAGGGCUAAGCAA [A45U G46A]	0.0722
AGUUCACGGAGGGAGCUCCAGCACAGUGAAAUGGACAGAAGGGCAGAGCAA [G5C C6A U7C C9G U10A]	1.72
AGUUCUUCUCGGGAGCUCCAGCACAGUGAAAUGGACAGGCGGGCAGAGCAA [G5C C6U G8C C9U U10C A39G A40C]	1.79
AGUUGAAUCAGGGAGCUCCAGCACAGUGAAAUGGACAGAAGGGCAGAGCAA [C6A U7A G8U U10A]	0.0805
AGUUACCACCGGCAGCUCCAGCACAGUGAAAUGGACAGAAGGGCAGAGCAA [G5A U7C G8A U10C G13C]	1.1
AGUUGACGACGGGAGCUCCAGCACCGUGAAAUGGACAGAAGGGCAGAGCAA [C6A U7C C9A U10C A25C]	4.45
AGUUACCACCGGGAGCUCCAGCGUAGUGAAAUGGACAGAAGGGCAGAGCAA [G5A U7C G8A U10C A23G C24U]	0.823
AGUUCUUCUCGGGAGCUCUGGCACAGUGAAAUGGACAGAAGGGCAGAGCAA [G5C C6U G8C C9U U10C C19U A20G]	0.343
AGUUUUGGAUGGGAGCUCCAGCACAGUGAAAUGGACAGAAGGGCAGAGCAA [G5U C6U U7G C9A]	0.469
AGUUACCACCGGGAGCUUCAGCACAGUGAAAUGGACAGAAGGGCAGAGCAA [G5A U7C G8A U10C C18U]	1.67
AGUUCACACAGGGAGCUCCAGCACAGUGAGGUGGACAGAAGGGCAGAGCAA [G5C C6A U7C G8A U10A A30G A31G]	0.0207
AGUUAGGGAUGGGAGCUCCAGCACAGUGAAAUGGACAAGAGGGCAGAGCAA [G5A C6G U7G C9A G38A A39G]	0.000899
ACAUCGCGCCGGGAGCUCCAGCACAGUGAAAUGGACAGAAGGGCAGAGCAA [G2C U3A G5C C6G U7C U10C]	3.34
AGUUGAAGAAGGGAGCUCCAGCACAGUGAAAUGGACAGAAGGAAAGAGCAA [C6A U7A C9A U10A G43A C44A]	1.84
AGUUAGGGAUGGGAACUCCAGCACAGUGAAAUGGACAGAAGGGCAGAGCAA [G5A C6G U7G C9A G15A]	0.00165
AGUUACCACCGGGAGCUCCAGCACAGUGAAAUGGACAGAAGGCGAGAGCAA [G5A U7C G8A U10C G43C C44G]	4.39
AGUUCUUCUCGGGAGCUCCAGCACAGUGAAAGAGACAGAAGGGCAGAGCAA [G5C C6U G8C C9U U10C U32G G33A]	0.468
AGUUUCUUUUGGGAGCUCCAGCACAGUGAAAUGGACAGAAGGGCACUGCAA [G5U G8U C9U G46C A47U]	0.15
AGGCACCACCGGGAGCUCCAGCACAGUGAAAUGGACAGAAGGGCAGAGCAA [U3G U4C G5A U7C G8A U10C]	2.37
AGUUGAACUAGGGAGCUCCAGCACAGUGAAAUGGACAGAAGGGCAGAGCAA [C6A U7A G8C C9U U10A]	0.0222
AGUUAUAUAUGGGAGCUUUAGCACAGUGAAAUGGACAGAAGGGCAGAGCAA [G5A C6U U7A G8U C9A C18U C19U]	0.00085
AGUUCGCGCCGGGAGCUCCAGCACAGUGAAAUGGACAGAAGUUCAGAGCAA [G5C C6G U7C U10C G42U G43U]	4.33
AGUUGCUGCUGGGAGCUCCAGCACUCUGAAAUGGACAGAAGGGCAGAGCAA [A25U G26C]	0.235
AGUUGACGACGGGAGCUCCAGCACAGUGAAAUGGACAGAAGUGCAGAGCAA [C6A U7C C9A U10C G42U]	3.3
AGUUUCUUUUGGGAGCUCCAGCACAGUGACUUGGACAGAAGGGCAGAGCAA [G5U G8U C9U A30C A31U]	0.139
